Where two headings read alike, the source gives them in different places. Each block holds one binder with its values, some of them ahead of it. Ends that are not written are not given here.
B4: talin-F3 (His-tagged, pull-down) (domain or fragment, mouse, UniProt P26039 309-405, looked up)
chain: GVSFFLVKEKMKGKNKLVPRLLGITKECVMRVDEKTKEVIQEWSLTNIKRWAASPKSFTLDFGDYQDGYYSVQTTEGEQIAQLIAGYIDIILKKKKS

Columns and labels:
[1] = biological target: T1, talin-F2F3 (mouse, UniProt P26039 206-405); assay: NMR titration
[2] = biological target: talin-F3 (mouse, UniProt P26039 309-405); assay: NMR titration
[3] = biological target: B4; assay: pull-down
[4] = biological target: talin-R9 (pull-down competitor) (mouse, UniProt P26039 1654-1848); assay: pull-down
[5] = biological target: T1, talin-F2F3; assay: NMR titration; remark: listed apart in the source

binding result [1]: binds
B1: talin-R9 (domain or fragment, mouse, UniProt P26039 1654-1848, looked up)
chain: KAPGQLECETAIAALNSCLRDLDQASLAAVSQQLAPREGISQEALHTQMLTAVQEISHLIEPLASAARAEASQLGHKVSQMAQYFEPLTLAAVGAASKTLSHPQQMALLDQTKTLAESALQLLYTAKEAGGNPKQAAHTQEALEEAVQMMTEAVEDLTTTLNEAASAAGVVGGMVDSITQAINQLDEGPMGDPEG

binding result [2]: binds
B2: integrin β3 CT (716–762) L717K/L718K (peptide, UniProt P05106 742-788, looked up)
chain: KKKITIHDRKEFAKFEEERARAKWDTANNPLYKEATSTFTNITYRGT

binding result [3]: binds
B3: integrin β3 CT (716–762) L717K/L718K (His-tagged, pull-down) (peptide, UniProt P05106 742-788, looked up)
chain: KKKITIHDRKEFAKFEEERARAKWDTANNPLYKEATSTFTNITYRGT
modifications: also: His-tagged

Binder: B4
binding result [4]: binds

binding result [2]: binds
binding result [5]: binds
B5: RIAM-N (peptide, UniProt Q7Z5R6 7-30, looked up)
peptide: DIDQMFSTLLGEMDLLTQSLGVDT

Reference: article PMC4432866 (Nature communications, 2014)
